Measurements: patent publication US20210171654A1 (FORTY SEVEN, published 2021)
Several values for one entry are separate records, joined by “and”; a condition that tells them apart may be missing. Equal values may be shown once. Blank lines part the entries; values can stand above or below the binder they belong to.

Assays:
[1] = biological target: T1, human SIRPG-His fusion protein (human, UniProt Q9P1W8-2 29-327, limits assumed); experiment: ELISA, binding to human SIRPG-His fusion protein
T1 construct: also called SIRP gamma; not shown: His tag

[2] = biological target: T2, human SIRP-alpha variant 1 (V1) on monocytes and macrophages of V1 homozygous donors (human, UniProt P78324 31-146); experiment: flow cytometry on monocytes; blocking of AF488-conjugated human CD47-Fc binding
T2 construct: the whole native protein stood on the cells; also called SIRPa V1
Method: (§1) Blocking human CD47 binding on monocytes isolated from human donors. Human peripheral blood mononuclear cells (PBMCs) were isolated from human blood using Ficoll. 5×10⁵ cells were incubated with 1 ug/ml of AF488-conjugated human CD47-Fc fusion protein in the absence or presence of increasing concentrations of hHu1H9-G1. Binding of CD47 on the cells was measured and analyzed by flow cytometry.

[3] = biological target: T3, human SIRP-alpha V1/V5 (heterozygous) on monocytes and macrophages of V1/V5 donors (human); experiment: as above
T3 construct: Not a complex: the two allelic forms carried together by the cells of heterozygous donors
Method: as §1

[4] = biological target: T4, human SIRP-alpha variant 2 (V2) on monocytes and macrophages of V2 homozygous donors (human, UniProt Q5TFQ8 30-145); experiment: as above
T4 construct: the whole native protein stood on the cells; The definitions name GenBank CAA71403.1 for the V2 form (residues 30-504 mature); also called SIRPa V2
Method: as §1

T2 sequence (P78324 31-146, change not shown): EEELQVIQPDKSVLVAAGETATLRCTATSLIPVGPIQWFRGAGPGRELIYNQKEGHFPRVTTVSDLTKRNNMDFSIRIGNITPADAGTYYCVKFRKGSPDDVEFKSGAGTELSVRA
T1 sequence (Q9P1W8 62-360 limits assumed): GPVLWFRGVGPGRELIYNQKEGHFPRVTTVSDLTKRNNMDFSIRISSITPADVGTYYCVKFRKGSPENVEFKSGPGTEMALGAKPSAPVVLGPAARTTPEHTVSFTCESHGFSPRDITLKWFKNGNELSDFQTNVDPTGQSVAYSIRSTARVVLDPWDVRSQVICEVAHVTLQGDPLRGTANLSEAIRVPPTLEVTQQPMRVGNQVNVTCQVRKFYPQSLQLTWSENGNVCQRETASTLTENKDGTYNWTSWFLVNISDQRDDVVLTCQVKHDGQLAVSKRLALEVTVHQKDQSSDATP
T3 sequence (P78324 whole entry): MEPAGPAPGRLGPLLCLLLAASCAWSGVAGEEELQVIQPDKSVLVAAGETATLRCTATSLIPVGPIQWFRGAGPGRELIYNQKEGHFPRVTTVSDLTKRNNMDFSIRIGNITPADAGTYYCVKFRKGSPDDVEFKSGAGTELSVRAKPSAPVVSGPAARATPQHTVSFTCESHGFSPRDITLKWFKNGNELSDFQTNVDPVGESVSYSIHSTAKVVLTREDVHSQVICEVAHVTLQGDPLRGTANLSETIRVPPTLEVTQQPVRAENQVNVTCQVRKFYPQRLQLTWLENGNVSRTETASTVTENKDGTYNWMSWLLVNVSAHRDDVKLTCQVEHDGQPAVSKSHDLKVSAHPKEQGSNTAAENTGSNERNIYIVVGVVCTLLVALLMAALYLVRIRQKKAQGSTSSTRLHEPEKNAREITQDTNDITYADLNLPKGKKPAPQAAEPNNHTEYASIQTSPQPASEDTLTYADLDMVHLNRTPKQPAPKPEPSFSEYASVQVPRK
T4 sequence (Q5TFQ8 other isoform, or with tags, fused parts or gaps mutant): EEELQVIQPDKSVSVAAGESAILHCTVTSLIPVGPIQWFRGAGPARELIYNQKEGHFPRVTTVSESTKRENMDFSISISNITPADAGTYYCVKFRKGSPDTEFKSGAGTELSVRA

binding result [1]: no binding (tested: about 3000 ng/mL)
B1: 3C2 (parental mouse anti-human SIRPa monoclonal antibody) (antibody, V domains shown)
VH: QVQLQQPGAELVRPGSSVKLSCKASGYTFTSYWMHWVKQRPIQGLEWIGNIDPSDSDTHYNQKFKDKATLTVDKSSSTAYMQLSSLTSEDSAVYYCARGYSKYYAMDYWGQGTSVTVSS
VL: DVLMTQTPLSLSVSLGDQASISCRSSQSIVHSYGNTYLEWYLQKPGQSPKLLIYKVSNRFSGVPDRFSGSGSGTDFTLKISRVEAEDLGVYYCFQGSHVPYTFGGGTKLEIK
notes: Hybridoma-derived mouse antibody; also called mouse 3C2

IC50 (read off the curve) [2]: ~8 µg/mL and ~4 µg/mL | IC50 (read off the curve) [3]: ~3 µg/mL | IC50 (read off the curve) [4]: ~20 µg/mL
B2: Humanized 1H9 (antibody, human IgG1, kappa, N297A, V domains shown)
VH: QVQLVQSGAEVKKPGASVKVSCKASGYTFTSYWITWVKQAPGQGLEWIGDIYPGSGSTNHIEKFKSKATLTVDTSISTAYMELSRLRSDDTAVYYCATGYGSSYGYFDYWGQGTLVTVSS
VL: DIQMTQSPSSLSASVGDRVTITCRASENIYSYLAWYQQKPGKAPKLLIYTAKTLAEGVPSRFSGSGSGTDFTLTISSLQPEDFATYYCQHQYGPPFTFGQGTKLEIKR
notes: also called Hu1H9-G1; humanized 1H9-G1

binding result [1]: no binding (tested: about 3000 ng/mL)
B3: 1H9 (parental mouse anti-human SIRPa monoclonal antibody) (antibody, V domains shown)
VH: QVQLQQPGAERVKPGASVKMSCKASGYTFTSYWITWVKQRPGQGLEWIGDIYPGSGSTNHIEKFKSKATLTVDTSSNTAYMQLSRLTSEDSAVYYCATGYGSSYGYFDYWGQGTTLTVSS
VL: DIQMTQSPASLSASVGETVTITCRASENIYSYLAWYQQKQGKSPQLLVYTAKTLAEGVPSRFSGSGSGTQFSLKINSLQPEDFGNYYCQHQYGPPFTFGSGTRLVIK
notes: Hybridoma-derived mouse antibody; also called mouse 1H9
